# From publication PMC2788227 (PLoS ONE, 2009)
# B1: Francisella tularensis subsp. holarctica LVS 1-deoxy-D-xylulose 5-phosphate reductoisomerase (MEP sy (enzyme)
# chain: MFKKTKITILGATGSIGDSTLAVIRETNDFEVFALTAFSNVEKLAELCQEFKPKFAVVPDLSKKQKLQSLVTDVEVLVGESGLEKVSSLAEIDIVMSAIVGIAGLKPTFAAAKAGKKILLANKESLVTAGHLLIDEVVKNNAQLIPVDSEHNAIFQCIDNHDKKCLPEIDKIILTASGGPFRDKQLHELTDVTPEQACNHPNWQMGRKISVDSSTMVNKALEVIEAYWLFSVSADKIGVLIHPQSVTHSIVRYVDGSYIAQLGVPDMKTPIANAMYYPKRGSVNVESLDFTKYQLTFREACFERFEALKIVFNNLQNKNYAANIVFNAANEELVAAFLNKKIKYLEIIEVNKKVTKELNFENPKNIEEVFEIDRKTREYVDSVLG
# Molecular target: the molecule itself
# Assay: SEC
protein,measurement,value
B1,stoichiometry N,2
